# Test results as given in publication PMC1635324 (Nucleic Acids Research, 2006).
# T1: ribosomal protein L10 from Methanococcus jannaschii (Methanococcus jannaschii, UniProt P54049 1-338)
# T1 sequence (looked up): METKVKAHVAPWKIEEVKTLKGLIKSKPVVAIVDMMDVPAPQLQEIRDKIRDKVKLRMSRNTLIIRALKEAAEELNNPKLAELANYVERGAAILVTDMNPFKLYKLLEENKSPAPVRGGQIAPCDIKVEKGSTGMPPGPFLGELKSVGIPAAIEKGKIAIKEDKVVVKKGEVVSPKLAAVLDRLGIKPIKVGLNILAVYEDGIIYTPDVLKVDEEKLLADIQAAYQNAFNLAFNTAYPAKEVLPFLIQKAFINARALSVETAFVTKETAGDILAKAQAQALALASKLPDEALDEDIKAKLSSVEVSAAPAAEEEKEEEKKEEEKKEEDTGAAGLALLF
# T2: ribosomal protein L10 from Methanococcus thermolithotrophicus (Methanococcus thermolithotrophicus, UniProt O52705 1-338)
# T2 sequence (looked up): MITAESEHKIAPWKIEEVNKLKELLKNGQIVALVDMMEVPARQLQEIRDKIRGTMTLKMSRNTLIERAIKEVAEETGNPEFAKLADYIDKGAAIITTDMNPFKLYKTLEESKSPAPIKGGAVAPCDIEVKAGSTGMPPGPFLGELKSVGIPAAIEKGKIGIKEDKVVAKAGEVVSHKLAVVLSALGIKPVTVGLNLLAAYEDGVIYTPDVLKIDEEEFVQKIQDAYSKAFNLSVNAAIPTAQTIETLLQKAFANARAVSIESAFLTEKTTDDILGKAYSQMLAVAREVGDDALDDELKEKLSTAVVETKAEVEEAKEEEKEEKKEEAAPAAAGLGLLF
# T3: ribosomal protein L10 from Thermus thermophilus (Thermus thermophilus, UniProt Q8VVE3 1-173)
# T3 sequence (looked up): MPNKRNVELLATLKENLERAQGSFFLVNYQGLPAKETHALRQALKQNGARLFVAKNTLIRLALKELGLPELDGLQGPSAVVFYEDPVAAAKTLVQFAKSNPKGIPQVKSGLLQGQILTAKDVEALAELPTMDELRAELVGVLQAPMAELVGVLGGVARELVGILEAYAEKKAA
# T4: ribosomal protein L10 from Methanococcus vannielii (Methanococcus vannielii, UniProt P15826 1-336)
# T4 sequence (looked up): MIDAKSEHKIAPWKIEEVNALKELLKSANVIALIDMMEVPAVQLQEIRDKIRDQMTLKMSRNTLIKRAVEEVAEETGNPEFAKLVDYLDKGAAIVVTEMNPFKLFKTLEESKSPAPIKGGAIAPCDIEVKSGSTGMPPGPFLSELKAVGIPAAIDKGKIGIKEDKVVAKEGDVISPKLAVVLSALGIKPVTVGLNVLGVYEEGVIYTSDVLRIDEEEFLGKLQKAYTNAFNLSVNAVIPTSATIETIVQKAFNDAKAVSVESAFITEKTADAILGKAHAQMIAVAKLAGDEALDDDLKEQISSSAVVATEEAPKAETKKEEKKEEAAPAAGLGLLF
# T5: ribosomal protein L10 from Sulfolobus solfataricus (Sulfolobus solfataricus, UniProt P96039 1-338)
# T5 sequence (looked up): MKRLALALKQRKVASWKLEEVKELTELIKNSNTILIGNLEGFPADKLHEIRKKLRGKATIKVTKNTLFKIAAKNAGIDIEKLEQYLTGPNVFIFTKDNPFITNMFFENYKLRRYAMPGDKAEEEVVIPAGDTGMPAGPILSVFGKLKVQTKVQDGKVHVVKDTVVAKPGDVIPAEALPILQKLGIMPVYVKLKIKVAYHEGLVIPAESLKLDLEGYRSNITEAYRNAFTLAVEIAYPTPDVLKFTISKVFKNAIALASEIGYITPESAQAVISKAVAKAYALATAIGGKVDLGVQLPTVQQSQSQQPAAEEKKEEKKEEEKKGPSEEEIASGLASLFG
# Experiments:
# [1] = target: T1, ribosomal protein L10 from …; assay: native gel or EMSA
# [2] = target: T2, ribosomal protein L10 from …; assay: native gel or EMSA
# [3] = target: T2, ribosomal protein L10 from …; assay: SEC
# [4] = target: T3, ribosomal protein L10 from Thermus …; assay: SEC
# [5] = target: T4, ribosomal protein L10 from …; assay: native gel or EMSA
# [6] = target: T4, ribosomal protein L10 from …; assay: SEC
# [7] = target: T5, ribosomal protein L10 from Sulfolobus …; assay: native gel or EMSA
# [8] = target: T5, ribosomal protein L10 from Sulfolobus …; assay: SEC
binder,measurement,setting,value
"ribosomal protein L12 from Methanococcus jannaschii (natural protein, UniProt P54048 1-102, looked up) MEYIYAALLLHSAGKEITEDAIKAVLSAAGVEVDDARVKALVAGLEGVDIEEAIANAAMPVAAAPAAAAPAAAAEEKKEEEKKEEKKEEDTAAVAGLAALFG",stoichiometry N,[1],~4 L12 per L10
"ribosomal protein L12 from Methanococcus thermolithotrophicus (natural protein, UniProt O52706 1-101, looked up) MEYIYASLLLHSAGKEITEDAVKAVLSAAGVEVEDARVKALVAALEGVDIEEAIEKAAMPVAAAAAPAAAPAEEPKEEKKEEKKEEDTTAAAAAGLGALFG",stoichiometry N,[2],~4 L12 per L10
same,stoichiometry N,[3],4 L12 per L10
"ribosomal protein L12 from Thermus thermophilus (natural protein, UniProt Q8VVE2 1-125, looked up) MALDIERIKEELSQATVLELKQLIDALKEAWGVTAAAPVAVAAAPAAGAAAAPAEEKTEFDVILKEAGAKKLEVIKELRAITGLGLKEAKDLAEKGGPVKEGVSKQEAEEIKKKLEAVGAVVELK",stoichiometry N,[4],6 L12 per L10
"ribosomal protein L12 from Methanococcus vannielii (natural protein, UniProt P10623 1-99, looked up) MEYIYAALLLNSANKEVTEEAVKAVLVAGGIEANDARVKALVAALEGVDIAEAIAKAAIAPVAAAAPVAAAAAPAEVKKEEKKEDTTAAAAAGLGALFM",stoichiometry N,[5],~4 L12 per L10
same,stoichiometry N,[6],4 L12 per L10
"ribosomal protein L12 from Sulfolobus solfataricus (natural protein, UniProt P96040 1-106, looked up) MEYIYASLLLHSAKKEISEDALKNVLTAAGISVDEVRLKAVVAALKEVNIDEVLKNAAAMPVAVAAQPQATQAQPAAEEKKEEKKEEEKKGPSEEEIASGLASLFG",stoichiometry N,[7],~4 L12 per L10
same,stoichiometry N,[8],4 L12 per L10
